T1: RHPN1, Q8TCX5
T1 sequence (Q8TCX5 508-602, limits assumed, looked up): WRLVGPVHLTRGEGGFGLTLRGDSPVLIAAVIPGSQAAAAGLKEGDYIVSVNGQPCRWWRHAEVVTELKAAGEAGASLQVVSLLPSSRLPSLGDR

T2: SHANK1, Q9Y566
T2 sequence (Q9Y566 658-767, limits assumed, looked up): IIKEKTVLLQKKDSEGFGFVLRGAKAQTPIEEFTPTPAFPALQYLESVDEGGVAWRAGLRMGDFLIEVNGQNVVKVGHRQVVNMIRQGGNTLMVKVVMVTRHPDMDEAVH

T3: CARD11, Q9BXL7
T3 sequence (Q9BXL7 662-765, limits assumed, looked up): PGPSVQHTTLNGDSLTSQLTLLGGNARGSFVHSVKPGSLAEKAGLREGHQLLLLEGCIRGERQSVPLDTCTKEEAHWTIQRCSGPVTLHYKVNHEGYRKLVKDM

T4: PARD3B_1, Q8TEW8
T4 sequence (Q8TEW8 196-299, limits assumed, looked up): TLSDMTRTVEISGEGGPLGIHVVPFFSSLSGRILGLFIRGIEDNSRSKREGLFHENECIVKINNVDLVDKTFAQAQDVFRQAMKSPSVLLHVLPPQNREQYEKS

T5: MPDZ_12, O75970
T5 sequence (O75970 1857-1958, limits assumed, looked up): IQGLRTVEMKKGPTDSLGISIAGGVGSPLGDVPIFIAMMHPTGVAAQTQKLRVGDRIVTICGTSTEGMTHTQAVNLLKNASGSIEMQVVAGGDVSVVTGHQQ

T6: GRIP1_4, Q9Y3R0
T6 sequence (Q9Y3R0 467-571, limits assumed, looked up): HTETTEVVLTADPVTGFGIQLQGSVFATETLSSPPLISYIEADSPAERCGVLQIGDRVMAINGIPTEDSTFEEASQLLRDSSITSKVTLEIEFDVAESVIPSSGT

T7: SIPA1L2, Q9P2F8
T7 sequence (Q9P2F8 945-1036, limits assumed, looked up): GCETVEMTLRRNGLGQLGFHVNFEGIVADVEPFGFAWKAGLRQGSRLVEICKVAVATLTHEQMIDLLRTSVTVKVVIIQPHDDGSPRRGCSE

T8: LIN7C, Q9NUP9
T8 sequence (Q9NUP9 88-185, limits assumed, looked up): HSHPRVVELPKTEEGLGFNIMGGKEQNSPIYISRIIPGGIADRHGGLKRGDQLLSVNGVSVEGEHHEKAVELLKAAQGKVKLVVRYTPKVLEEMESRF


biological target: GORASP1, Q9BQQ3; assay: holdup assay; set-up: key: below the threshold = too weak to quantify, mostly under pKd 3.1 to 4; conditions: plain residues with an end cap or a label only (N-terminal biotin on a linker: ado-ado)
Sequence (Q9BQQ3 1-208): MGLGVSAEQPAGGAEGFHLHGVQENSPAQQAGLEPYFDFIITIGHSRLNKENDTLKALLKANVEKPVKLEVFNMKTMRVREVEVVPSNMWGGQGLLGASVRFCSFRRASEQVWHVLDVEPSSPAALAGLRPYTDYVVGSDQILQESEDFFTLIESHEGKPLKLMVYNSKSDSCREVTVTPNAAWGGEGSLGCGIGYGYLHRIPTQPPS

pKd	Binder
3.75	TFSRRPKTRV [CD226, Q15762]

biological target: MAGI2_6, Q86UL8; assay: holdup assay; set-up: key: below the threshold = too weak to quantify, mostly under pKd 3.1 to 4; conditions: plain residues with an end cap or a label only (N-terminal biotin on a linker: ado-ado)
Sequence (Q86UL8 1141-1229): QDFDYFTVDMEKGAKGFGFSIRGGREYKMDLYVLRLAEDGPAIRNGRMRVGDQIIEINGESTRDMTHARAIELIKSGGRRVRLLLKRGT

pKd	Binder
below the threshold	TFSRRPKTRV [CD226, Q15762]

biological target: NHERF2_2, Q15599; assay: holdup assay; set-up: key: below the threshold = too weak to quantify, mostly under pKd 3.1 to 4; conditions: plain residues with an end cap or a label only (N-terminal biotin on a linker: ado-ado)
Sequence (Q15599 142-238): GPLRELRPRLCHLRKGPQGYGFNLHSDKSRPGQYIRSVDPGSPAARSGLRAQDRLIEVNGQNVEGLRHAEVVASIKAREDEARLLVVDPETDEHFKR

pKd	Binder
below the threshold	TFSRRPKTRV [CD226, Q15762]

biological target: LDB3, O75112; assay: holdup assay; set-up: key: below the threshold = too weak to quantify, mostly under pKd 3.1 to 4; conditions: plain residues with an end cap or a label only (N-terminal biotin on a linker: ado-ado)
Sequence (O75112 1-94): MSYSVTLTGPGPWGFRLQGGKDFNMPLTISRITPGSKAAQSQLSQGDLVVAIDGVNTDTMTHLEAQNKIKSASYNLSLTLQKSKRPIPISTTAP

pKd	Binder
below the threshold	TFSRRPKTRV [CD226, Q15762]

biological target: T1, RHPN1, Q8TCX5; assay: holdup assay; set-up: key: below the threshold = too weak to quantify, mostly under pKd 3.1 to 4; conditions: plain residues with an end cap or a label only (N-terminal biotin on a linker: ado-ado)

pKd	Binder
below the threshold	TFSRRPKTRV [CD226, Q15762]

biological target: Inadl_1, Q8NI35; assay: holdup assay; set-up: key: below the threshold = too weak to quantify, mostly under pKd 3.1 to 4; conditions: plain residues with an end cap or a label only (N-terminal biotin on a linker: ado-ado)
Sequence (Q8NI35 113-229): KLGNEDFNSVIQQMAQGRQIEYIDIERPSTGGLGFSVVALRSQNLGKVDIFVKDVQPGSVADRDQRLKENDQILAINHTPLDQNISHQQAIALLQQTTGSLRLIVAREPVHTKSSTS

pKd	Binder
below the threshold	TFSRRPKTRV [CD226, Q15762]

biological target: GRID2IP_2, A4D2P6; assay: holdup assay; set-up: key: below the threshold = too weak to quantify, mostly under pKd 3.1 to 4; conditions: plain residues with an end cap or a label only (N-terminal biotin on a linker: ado-ado)
Sequence (A4D2P6 272-370): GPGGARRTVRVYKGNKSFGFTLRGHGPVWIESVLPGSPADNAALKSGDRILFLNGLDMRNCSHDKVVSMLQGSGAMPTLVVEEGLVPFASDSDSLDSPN

pKd	Binder
4.16	TFSRRPKTRV [CD226, Q15762]

biological target: T2, SHANK1, Q9Y566; assay: holdup assay; set-up: key: below the threshold = too weak to quantify, mostly under pKd 3.1 to 4; conditions: plain residues with an end cap or a label only (N-terminal biotin on a linker: ado-ado)

pKd	Binder
4.06	TFSRRPKTRV [CD226, Q15762]

biological target: FRMPD2_2, Q68DX3; assay: holdup assay; set-up: key: below the threshold = too weak to quantify, mostly under pKd 3.1 to 4; conditions: plain residues with an end cap or a label only (N-terminal biotin on a linker: ado-ado)
Sequence (Q68DX3 944-1038): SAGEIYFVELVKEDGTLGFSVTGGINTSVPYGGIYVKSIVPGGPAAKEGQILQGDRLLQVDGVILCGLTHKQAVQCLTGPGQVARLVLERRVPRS

pKd	Binder
below the threshold	TFSRRPKTRV [CD226, Q15762]

biological target: T3, CARD11, Q9BXL7; assay: holdup assay; set-up: key: below the threshold = too weak to quantify, mostly under pKd 3.1 to 4; conditions: plain residues with an end cap or a label only (N-terminal biotin on a linker: ado-ado)

pKd	Binder
below the threshold	TFSRRPKTRV [CD226, Q15762]

biological target: HTRA2, O43464; assay: holdup assay; set-up: key: below the threshold = too weak to quantify, mostly under pKd 3.1 to 4; conditions: plain residues with an end cap or a label only (N-terminal biotin on a linker: ado-ado)
Sequence (O43464 355-458): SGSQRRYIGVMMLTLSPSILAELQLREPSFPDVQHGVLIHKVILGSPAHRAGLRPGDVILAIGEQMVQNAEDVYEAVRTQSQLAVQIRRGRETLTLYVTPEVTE

pKd	Binder
below the threshold	TFSRRPKTRV [CD226, Q15762]

biological target: SCRIB_3, Q14160; assay: holdup assay; set-up: key: below the threshold = too weak to quantify, mostly under pKd 3.1 to 4; conditions: plain residues with an end cap or a label only (N-terminal biotin on a linker: ado-ado)
Sequence (Q14160 999-1103): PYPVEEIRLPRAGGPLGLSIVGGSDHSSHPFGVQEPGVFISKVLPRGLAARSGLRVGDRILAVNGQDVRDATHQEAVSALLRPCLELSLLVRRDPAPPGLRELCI

pKd	Binder
below the threshold	TFSRRPKTRV [CD226, Q15762]

biological target: T4, PARD3B_1, Q8TEW8; assay: holdup assay; set-up: key: below the threshold = too weak to quantify, mostly under pKd 3.1 to 4; conditions: plain residues with an end cap or a label only (N-terminal biotin on a linker: ado-ado)

pKd	Binder
below the threshold	TFSRRPKTRV [CD226, Q15762]

biological target: GRIP2_4, Q9C0E4; assay: holdup assay; set-up: key: below the threshold = too weak to quantify, mostly under pKd 3.1 to 4; conditions: plain residues with an end cap or a label only (N-terminal biotin on a linker: ado-ado)
Sequence (Q9C0E4 446-548): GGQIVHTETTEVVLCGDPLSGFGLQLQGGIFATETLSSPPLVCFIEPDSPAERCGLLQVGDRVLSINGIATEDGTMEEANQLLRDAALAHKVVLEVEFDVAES

pKd	Binder
3.54	TFSRRPKTRV [CD226, Q15762]

biological target: NHERF4_4, Q86UT5; assay: holdup assay; set-up: key: below the threshold = too weak to quantify, mostly under pKd 3.1 to 4; conditions: plain residues with an end cap or a label only (N-terminal biotin on a linker: ado-ado)
Sequence (Q86UT5 464-550): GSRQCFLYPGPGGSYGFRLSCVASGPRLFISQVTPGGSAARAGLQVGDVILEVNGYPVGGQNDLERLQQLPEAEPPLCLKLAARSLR

pKd	Binder
below the threshold	TFSRRPKTRV [CD226, Q15762]

biological target: SNX27, Q96L92; assay: holdup assay; set-up: key: below the threshold = too weak to quantify, mostly under pKd 3.1 to 4; conditions: plain residues with an end cap or a label only (N-terminal biotin on a linker: ado-ado)

pKd	Binder
3.88	TFSRRPKTRV [CD226, Q15762]

biological target: Inadl_2, Q8NI35; assay: holdup assay; set-up: key: below the threshold = too weak to quantify, mostly under pKd 3.1 to 4; conditions: plain residues with an end cap or a label only (N-terminal biotin on a linker: ado-ado)
Sequence (Q8NI35 238-335): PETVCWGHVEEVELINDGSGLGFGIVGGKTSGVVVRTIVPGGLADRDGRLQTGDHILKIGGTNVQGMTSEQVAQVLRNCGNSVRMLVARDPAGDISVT

pKd	Binder
below the threshold	TFSRRPKTRV [CD226, Q15762]

biological target: T5, MPDZ_12, O75970; assay: holdup assay; set-up: key: below the threshold = too weak to quantify, mostly under pKd 3.1 to 4; conditions: plain residues with an end cap or a label only (N-terminal biotin on a linker: ado-ado)

pKd	Binder
below the threshold	TFSRRPKTRV [CD226, Q15762]

biological target: T6, GRIP1_4, Q9Y3R0; assay: holdup assay; set-up: key: below the threshold = too weak to quantify, mostly under pKd 3.1 to 4; conditions: plain residues with an end cap or a label only (N-terminal biotin on a linker: ado-ado)

pKd	Binder
below the threshold	TFSRRPKTRV [CD226, Q15762]

biological target: T7, SIPA1L2, Q9P2F8; assay: holdup assay; set-up: key: below the threshold = too weak to quantify, mostly under pKd 3.1 to 4; conditions: plain residues with an end cap or a label only (N-terminal biotin on a linker: ado-ado)

pKd	Binder
below the threshold	TFSRRPKTRV [CD226, Q15762]

biological target: Inadl_6, Q8NI35; assay: holdup assay; set-up: key: below the threshold = too weak to quantify, mostly under pKd 3.1 to 4; conditions: plain residues with an end cap or a label only (N-terminal biotin on a linker: ado-ado)
Sequence (Q8NI35 1058-1167): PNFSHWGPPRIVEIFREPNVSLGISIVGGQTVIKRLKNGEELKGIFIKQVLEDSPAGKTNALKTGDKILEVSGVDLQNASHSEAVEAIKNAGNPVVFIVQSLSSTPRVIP

pKd	Binder
below the threshold	TFSRRPKTRV [CD226, Q15762]

biological target: T8, LIN7C, Q9NUP9; assay: holdup assay; set-up: key: below the threshold = too weak to quantify, mostly under pKd 3.1 to 4; conditions: plain residues with an end cap or a label only (N-terminal biotin on a linker: ado-ado)

pKd	Binder
below the threshold	TFSRRPKTRV [CD226, Q15762]

biological target: MAGI2_2, Q86UL8; assay: holdup assay; set-up: key: below the threshold = too weak to quantify, mostly under pKd 3.1 to 4; conditions: plain residues with an end cap or a label only (N-terminal biotin on a linker: ado-ado)
Sequence (Q86UL8 410-522): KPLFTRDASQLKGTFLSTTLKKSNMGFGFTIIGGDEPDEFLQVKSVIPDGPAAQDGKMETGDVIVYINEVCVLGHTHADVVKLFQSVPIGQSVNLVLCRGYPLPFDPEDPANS

pKd	Binder
5.31	TFSRRPKTRV [CD226, Q15762]

biological target: DLG4_1, P78352; assay: holdup assay; set-up: key: below the threshold = too weak to quantify, mostly under pKd 3.1 to 4; conditions: plain residues with an end cap or a label only (N-terminal biotin on a linker: ado-ado)
Sequence (P78352 62-152): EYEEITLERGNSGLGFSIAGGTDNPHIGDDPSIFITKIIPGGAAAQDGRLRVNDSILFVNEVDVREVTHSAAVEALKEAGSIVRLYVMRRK

pKd	Binder
3.62	TFSRRPKTRV [CD226, Q15762]

biological target: LNX1_3, Q8TBB1; assay: holdup assay; set-up: key: below the threshold = too weak to quantify, mostly under pKd 3.1 to 4; conditions: plain residues with an end cap or a label only (N-terminal biotin on a linker: ado-ado)
Sequence (Q8TBB1 500-596): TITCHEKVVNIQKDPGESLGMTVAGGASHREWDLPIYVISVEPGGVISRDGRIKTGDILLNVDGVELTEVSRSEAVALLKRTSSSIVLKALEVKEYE

pKd	Binder
3.5	TFSRRPKTRV [CD226, Q15762]

biological target: FRMPD4, Q14CM0; assay: holdup assay; set-up: key: below the threshold = too weak to quantify, mostly under pKd 3.1 to 4; conditions: plain residues with an end cap or a label only (N-terminal biotin on a linker: ado-ado)
Sequence (Q14CM0 67-160): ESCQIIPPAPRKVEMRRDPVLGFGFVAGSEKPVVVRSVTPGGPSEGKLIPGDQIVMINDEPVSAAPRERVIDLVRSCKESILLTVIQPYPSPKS

pKd	Binder
below the threshold	TFSRRPKTRV [CD226, Q15762]

biological target: PTPN3, P26045; assay: holdup assay; set-up: key: below the threshold = too weak to quantify, mostly under pKd 3.1 to 4; conditions: plain residues with an end cap or a label only (N-terminal biotin on a linker: ado-ado)
Sequence (P26045 505-587): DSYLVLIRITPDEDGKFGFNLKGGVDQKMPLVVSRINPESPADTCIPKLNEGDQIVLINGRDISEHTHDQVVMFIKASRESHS

pKd	Binder
below the threshold	TFSRRPKTRV [CD226, Q15762]

biological target: DLG1_3, Q12959; assay: holdup assay; set-up: key: below the threshold = too weak to quantify, mostly under pKd 3.1 to 4; conditions: plain residues with an end cap or a label only (N-terminal biotin on a linker: ado-ado)
Sequence (Q12959 457-571): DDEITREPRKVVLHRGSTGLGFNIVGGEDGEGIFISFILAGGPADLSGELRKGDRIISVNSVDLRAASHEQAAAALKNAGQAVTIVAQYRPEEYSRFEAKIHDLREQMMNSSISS

pKd	Binder
below the threshold	TFSRRPKTRV [CD226, Q15762]

biological target: NHERF4_1, Q86UT5-2; assay: holdup assay; set-up: key: below the threshold = too weak to quantify, mostly under pKd 3.1 to 4; conditions: plain residues with an end cap or a label only (N-terminal biotin on a linker: ado-ado)
Sequence (Q86UT5 other isoform, or with tags, fused parts or gaps): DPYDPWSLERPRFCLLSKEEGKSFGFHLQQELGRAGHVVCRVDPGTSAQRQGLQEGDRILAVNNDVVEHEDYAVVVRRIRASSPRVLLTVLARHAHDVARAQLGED

pKd	Binder
below the threshold	TFSRRPKTRV [CD226, Q15762]

Source: paper PMC9482650, “Quantitative fragmentomics allow affinity mapping of interactomes” (Nature Communications, 2022)
